Key:
[1] = target: T1, TA-MUC1 (tumor-associated MUC1) on human tumor cell lines (human, UniProt P15941 24-1255, aberrant tumor-associated O-glycosylation); assay: flow cytometry on HSC-4 cells, detection with PE-conjugated goat anti-human IgG
T1 construct: whole, on cells; also called cellular TA-MUC1; cell surface TA-MUC1
Experimental: (§1) N54Q and N54D were transiently expressed and purified by protein A chromatography. Binding of the two variants to cell surface TA-MUC1 was compared to PM with Fab glycosylation using two different carcinoma cell lines. The tongue squamous cell carcinoma line HSC-4 expresses TA-MUC1 to a medium degree and the ovarian carcinoma cell line CaOV-3 to a high degree. Tumor cells were incubated with antibodies in serial dilutions and bound antibodies were detected using a Phycoerythrin-conjugated goat anti-human IgG (heavy and light chain) antibody. A human IgG control was included to control for background staining. Binding was analyzed by flow cytometry.

[2] = target: T1, TA-MUC1 (tumor-associated MUC1) on …; assay: flow cytometry on CaOV-3 cells, detection with PE-conjugated goat anti-human IgG
Experimental: as §1

[3] = target: T1, TA-MUC1 (tumor-associated MUC1) on …; assay: saturation binding of 111In-labelled antibody on ZR-75-1 cells
Experimental: (§2) Binding of the Fab-deglycosylated version of the MUC1-specific antibody PankoMab (PM-N54Q) on TA-MUC-1 positive human tumor cell lines was evaluated using radiolabeled antibodies by saturated binding analysis on the human mamma carcinoma cell lines ZR-75-1 and MCF-7 in comparison to Fab-glycosylated PankoMab-GEX®. The antibodies were chelated with a 12-fold molar excess of p-SCN-Benzyl-DTPA in 50 mM sodium carbonate, 150 mM NaCl, pH 8.7, for 2 h at 37° C., followed by over-night incubation at 2-8° C. Free chelator was removed over desalting columns and dead-end filtration (50 kDa cut-off, 6× buffer exchange to PBS). The chelated antibodies were radiolabeled with carrier-free ¹¹¹In (2 μCi/μg antibody) for 1 h at 37° C. in 6 mM phosphate, 1.6 mM KCl, 80 mM NaCl, 0.2 M Na-acetate, 0.1 M HCl. The preparations were neutralized by addition of 8-9 fold volume of 10× concentrated PBS. About 1/50 volume of fetal bovine serum were added to the neutralized labelled antibody preparation. Per cell binding approach 1*10⁶ cells were used. Several concentrations of labelled antibodies were added to the pelleted cells (30-1000 ng/200 μL in 1% BSA/PBS). The resuspended cell-antibody mixtures were measured in a gamma-counter and incubated 1 h at 4° C. […] The cell pellet was then measured for bound ¹¹¹In-labelled antibody in a gamma counter. […]

[4] = target: T1, TA-MUC1 (tumor-associated MUC1) on …; assay: saturation binding of 111In-labelled antibody on MCF-7 cells
Experimental: as §2

[5] = target: T1, TA-MUC1 (tumor-associated MUC1) on …; assay: saturation binding of 111In-labelled antibody on ZR-75-1 and MCF-7 cells
Experimental: as §2

T1 sequence (P15941 24-1255): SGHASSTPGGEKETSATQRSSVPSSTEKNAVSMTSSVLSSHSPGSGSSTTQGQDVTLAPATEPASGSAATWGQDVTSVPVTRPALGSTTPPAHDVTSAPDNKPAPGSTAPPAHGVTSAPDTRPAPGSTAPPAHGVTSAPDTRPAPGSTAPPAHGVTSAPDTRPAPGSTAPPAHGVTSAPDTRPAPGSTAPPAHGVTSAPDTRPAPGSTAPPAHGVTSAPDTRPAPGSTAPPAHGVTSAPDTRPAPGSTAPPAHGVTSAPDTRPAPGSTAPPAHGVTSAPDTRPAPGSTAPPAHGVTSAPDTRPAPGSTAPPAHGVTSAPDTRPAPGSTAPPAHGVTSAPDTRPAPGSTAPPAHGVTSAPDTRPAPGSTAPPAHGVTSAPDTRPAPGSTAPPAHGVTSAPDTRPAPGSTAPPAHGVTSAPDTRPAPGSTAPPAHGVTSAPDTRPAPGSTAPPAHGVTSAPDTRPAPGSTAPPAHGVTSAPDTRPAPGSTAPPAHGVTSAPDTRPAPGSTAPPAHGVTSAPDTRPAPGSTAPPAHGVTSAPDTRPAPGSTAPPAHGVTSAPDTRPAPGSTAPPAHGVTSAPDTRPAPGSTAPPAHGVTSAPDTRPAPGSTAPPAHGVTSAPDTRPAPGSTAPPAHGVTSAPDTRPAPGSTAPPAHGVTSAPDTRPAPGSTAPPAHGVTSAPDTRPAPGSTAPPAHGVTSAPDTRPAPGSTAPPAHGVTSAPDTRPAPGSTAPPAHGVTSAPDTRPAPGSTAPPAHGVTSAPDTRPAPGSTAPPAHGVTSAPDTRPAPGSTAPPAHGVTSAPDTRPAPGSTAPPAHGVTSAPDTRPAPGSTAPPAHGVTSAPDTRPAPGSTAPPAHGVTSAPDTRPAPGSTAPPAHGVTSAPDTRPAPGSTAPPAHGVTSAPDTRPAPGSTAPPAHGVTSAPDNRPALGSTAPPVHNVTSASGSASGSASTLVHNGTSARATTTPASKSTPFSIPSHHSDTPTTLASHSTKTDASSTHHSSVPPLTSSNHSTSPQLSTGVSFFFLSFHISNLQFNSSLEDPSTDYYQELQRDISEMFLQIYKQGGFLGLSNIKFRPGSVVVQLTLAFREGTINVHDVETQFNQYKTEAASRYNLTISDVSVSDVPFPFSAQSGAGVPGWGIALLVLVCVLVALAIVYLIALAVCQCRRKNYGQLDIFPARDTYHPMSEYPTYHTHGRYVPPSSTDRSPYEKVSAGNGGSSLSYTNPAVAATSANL

Row | Binder | EC50 (read off the curve) [1] | EC50 (read off the curve) [2] | Ka [3] | Ka [4] | fold higher binding than PankoMab-GEX® [5]
1 | humanized antibody PankoMab (with Fab glycosylation) (antibody, human IgG1, kappa, N-glycan on Asn54 (Kabat/EU numbering; amino acid position 57) in CDR-H2, IgG1 kappa made in NM-H9D8 cells (for the FcγRIIIa assay also in NM-H9D8-E6Q12, low fucose); also called PM; PankoMab-GEX®) heavy: not shown light: DIVMTQSPLSNPVTPGEPASISCRSSKSLLHSNGITYFFWYLQKPGQSPQLLIYQMSNLASGVPDRFSGSGSGTDFTLRISRVEAEDVGVYYCAQNLELPPTFGQGTKVEIKRTVAAPSVFIFPPSDEQLKSGTASVVCLLNNFYPREAKVQWKVDNALQSGNSQESVTEQDSKDSTYSLSSTLTLSKADYEKHKVYACEVTHQGLSSPVTKSFNRGEC | ~300 ng/mL | ~3 ng/mL | 1.2e+07 M⁻¹ | 3e+07 M⁻¹ | –
2 | PankoMab N54D (antibody, V domains shown, Light chain unchanged; also called PM-N54D) VH: EVQLVESGGGLVQPGGSMRLSCVASGFPFSNYWMNWVRQAPGKGLEWVGEIRLKSNDYTTHYAESVKGRFTISRDDSKNSLYLQMNSLKTEDTAVYYCTRHYYFDYWGQGTLVTVSS VL: DIVMTQSPLSNPVTPGEPASISCRSSKSLLHSNGITYFFWYLQKPGQSPQLLIYQMSNLASGVPDRFSGSGSGTDFTLRISRVEAEDVGVYYCAQNLELPPTFGQGTKVEIKR | – | ~4 ng/mL | – | – | –
3 | humanized antibody PankoMab N54Q (without Fab glycosylation) (antibody, human IgG1, kappa, IgG1 kappa; Made in NM-H9D8 cells (for the FcγRIIIa assay also in NM-H9D8-E6Q12, low fucose); also called PM-N54Q; PM N54Q w/o Fab glyc) heavy: not shown light: DIVMTQSPLSNPVTPGEPASISCRSSKSLLHSNGITYFFWYLQKPGQSPQLLIYQMSNLASGVPDRFSGSGSGTDFTLRISRVEAEDVGVYYCAQNLELPPTFGQGTKVEIKRTVAAPSVFIFPPSDEQLKSGTASVVCLLNNFYPREAKVQWKVDNALQSGNSQESVTEQDSKDSTYSLSSTLTLSKADYEKHKVYACEVTHQGLSSPVTKSFNRGEC | ~100 ng/mL | ~2 ng/mL | 3.4e+07 M⁻¹ | 7.8e+07 M⁻¹ | > 2.5 fold

Source: patent US20250257149A1 (GLYCOTOPE, published 2025)
